Laboratory results as given in patent publication US20220185900A1 (Regeneron, published 2022).

T1: Macaca fascicularis (mf) RET.mmh (Macaca fascicularis)
T1 construct: also called monkey RET
T1 chain: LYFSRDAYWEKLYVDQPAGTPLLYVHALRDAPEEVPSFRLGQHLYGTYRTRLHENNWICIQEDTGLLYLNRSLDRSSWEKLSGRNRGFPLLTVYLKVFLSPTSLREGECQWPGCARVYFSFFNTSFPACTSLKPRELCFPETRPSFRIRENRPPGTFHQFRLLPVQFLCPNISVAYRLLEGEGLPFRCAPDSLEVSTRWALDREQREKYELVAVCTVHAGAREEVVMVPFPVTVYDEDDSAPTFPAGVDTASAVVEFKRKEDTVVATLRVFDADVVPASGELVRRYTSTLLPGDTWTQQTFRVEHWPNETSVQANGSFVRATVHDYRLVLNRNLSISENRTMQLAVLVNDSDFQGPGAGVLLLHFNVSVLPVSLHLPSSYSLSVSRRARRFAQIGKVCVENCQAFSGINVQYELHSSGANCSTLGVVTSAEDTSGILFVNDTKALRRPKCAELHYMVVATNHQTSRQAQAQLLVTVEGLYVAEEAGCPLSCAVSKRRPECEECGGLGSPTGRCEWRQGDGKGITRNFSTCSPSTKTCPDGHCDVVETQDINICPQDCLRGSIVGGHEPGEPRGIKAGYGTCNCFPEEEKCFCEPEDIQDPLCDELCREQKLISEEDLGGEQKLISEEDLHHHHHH

B1: H4H8046P (antibody, human IgG4, V domains shown)
VH: QVQLVQSRDEVKKPGASVKVSCKASGYTFTTYGISWVRQAPGQGLEWMGWINTYNGDTNYAQKVQDRVIMTTDTSTSTAYMELRSLRSDDTAVYFCAGARPLGGRRAFDIWGQGTMVTVSS
VL: DIQMTQSPSSLSASVGDRVTITCRASQGISHYLAWYQQKPGKVPKLLIYAASTLQSGVPSRFSGSGSGTDFTLTISSLQPEDVATYYCQKYNSVPWTFGQGTKVEIK
notes: human IgG4 Fc (H4H prefix)
B2: H4H8045P (antibody, human IgG4, V domains shown)
VH: EVQLVESGGALVQPGGSLRLSCAASGFTFSNYAMTWVRQAPGMGLEWVSGISSSGASTFYADSVKGRFTISRDNSKNTLYLQMNSLRAEDTAVYYCAKEDYWGWFDYWGQGTLVTVSS
VL: DIQLTQSPSFLSASVGDRVTITCWASQDVSSYLAWYQQEPGKAPKVLIYDASTLQSGVPSRFSGSGSGTEFTLTISSLQPEDFAPYYCQQLNSYPYTFGQGTKLEIK
notes: human IgG4 Fc (H4H prefix)
B3: H4H8079P (antibody, human IgG4, V domains shown)
VH: EVQLVESGGGLVKPGGSLRLSCAASGFTFSNAWMSWVRQAPGKGLEWVGRIKSKTDGGTSEYAAPVKGRFTISRDDSKNTLFLQMNSLKSEDAAVYYCTTGRSWSDYFDFWGQGTLVTVSS
VL: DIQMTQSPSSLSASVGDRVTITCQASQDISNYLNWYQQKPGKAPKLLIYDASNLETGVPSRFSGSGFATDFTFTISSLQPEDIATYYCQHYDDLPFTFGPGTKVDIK
notes: human IgG4 Fc (H4H prefix)
B4: H4H8044P (antibody, human IgG4, V domains shown)
VH: QVQLVESGGGVVQPGRSLRLSCAASGFTFSGSGMHWVRQAPGKGLEWVAVIWEDGSNKYYADSVRGRFTISRDNFKNTLYLQMNSLRAEDTAVYYCARQTMVRGVIRFYYYYYGMDVWGQGTTVTVSS
VL: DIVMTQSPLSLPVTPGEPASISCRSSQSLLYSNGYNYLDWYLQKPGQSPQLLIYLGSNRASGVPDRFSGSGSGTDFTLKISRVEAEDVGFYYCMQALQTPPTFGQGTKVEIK
notes: human IgG4 Fc (H4H prefix)

The binders below were run against T2, hRET.mFc (human) (assay: SPR Biacore T200, mAb capture, 37 C).
T2 construct: also called dimeric human RET
Protocol: (§1) Binding affinities and kinetic constants of human anti-RET antibodies were determined by surface plasmon resonance (Biacore T200) at […] (Tables 2-3). […] Binding equilibrium dissociation constants (KD) and dissociative half-lives (t_{1/2}) were calculated from the kinetic rate constants as: KD [M]=kd/kₐ; and t_{1/2}(min)=(ln2/(60*kd). Calculations were performed using BiacoreT200 evaluation software v1.0.

| Kd [nM] | koff [s⁻¹] | kon [M⁻¹ s⁻¹] | t½ [min] | Binder |
| --- | --- | --- | --- | --- |
| 2.05 | 0.000694 | 338000 | 17 | B1 |
| 0.834 | 0.000382 | 459000 | 30 | B2 |
| 2 | 0.000523 | 261000 | 22 | B3 |
| 6.21 | 0.00085 | 137000 | 14 | B4 |

The binders below were run against T3, hRET.mmh (human, UniProt P07949 29-635, biotinylated in the ELISA of Example 4 (biot-hRET.mmh); not in the SPR of Example 3) (assay: SPR Biacore T200, mAb capture, 37 C).
T3 construct: also called biot-hRET.mmh; soluble monomeric human RET
Protocol: as §1

| Kd [nM] | koff [s⁻¹] | kon [M⁻¹ s⁻¹] | t½ [min] | Binder |
| --- | --- | --- | --- | --- |
| 1.81 | 0.0013 | 718000 | 9 | B1 |
| 3.22 | 0.00127 | 395000 | 9 | B2 |
| 9.1 | 0.00189 | 207000 | 6 | B3 |
| 18.6 | 0.00281 | 151000 | 4 | B4 |

Molecular target: T1, Macaca fascicularis (mf) RET.mmh
Test: SPR Biacore T200, mAb capture, 37 C
Protocol: as §1

| Kd [nM] | koff [s⁻¹] | kon [M⁻¹ s⁻¹] | t½ [min] | Binder |
| --- | --- | --- | --- | --- |
| 1.92 | 0.00135 | 704000 | 9 | B1 |
| 50.3 | 0.0131 | 261000 | 1 | B2 |
| 13.3 | 0.00205 | 154000 | 6 | B3 |
| 48.5 | 0.00521 | 108000 | 2 | B4 |

The binders below were run against T2, hRET.mFc (assay: SPR Biacore T200, mAb capture, 25 C).
Protocol: as §1

| Kd [nM] | koff [s⁻¹] | kon [M⁻¹ s⁻¹] | t½ [min] | Binder |
| --- | --- | --- | --- | --- |
| 0.645 | 0.000181 | 280000 | 64 | B1 |
| 0.229 | 8.71e-05 | 381000 | 133 | B2 |
| 0.72 | 0.000151 | 209000 | 77 | B3 |
| 1.97 | 0.000211 | 107000 | 55 | B4 |

Each binder was assayed against T3, hRET.mmh (assay: SPR Biacore T200, mAb capture, 25 C).
Protocol: as §1

| Kd [nM] | koff [s⁻¹] | kon [M⁻¹ s⁻¹] | t½ [min] | Binder |
| --- | --- | --- | --- | --- |
| 0.984 | 0.000301 | 306000 | 38 | B1 |
| 0.883 | 0.000246 | 279000 | 47 | B2 |
| 2.68 | 0.000384 | 143000 | 30 | B3 |
| 5.49 | 0.000488 | 88800 | 24 | B4 |

Molecular target: T1, Macaca fascicularis (mf) RET.mmh
Test: SPR Biacore T200, mAb capture, 25 C
Protocol: as §1

| Kd [nM] | koff [s⁻¹] | kon [M⁻¹ s⁻¹] | t½ [min] | Binder |
| --- | --- | --- | --- | --- |
| 1.13 | 0.000315 | 278000 | 37 | B1 |
| 14.6 | 0.0028 | 192000 | 4 | B2 |
| 3.73 | 0.000435 | 117000 | 27 | B3 |
| 14.7 | 0.00135 | 92000 | 9 | B4 |

These binders were tested against T3, hRET.mmh (assay: competition sandwich ELISA: 1 nM biot-hRET.mmh + antibody, plate-coated GDNF/GFRα1 co-complex).
Protocol: The ability of anti-RET antibodies to block the binding of human RET to pre-complexed plate bound GDNF:GFRα1 was assessed using a competition sandwich ELISA.
Antibody-RET mixtures were incubated for 1 hour at RT and then transferred to microtiter plates previously coated with the hGDNF/hGFRα1 co-complex. Binding was allowed to proceed for 1 hr at RT followed by extensive washing. […] Plates were read at 450 nm and data analysis used a sigmoidal dose-response model within Prism™ software.
The absorbance values of the wells containing the highest concentration for each antibody were used to determine the blocking percent at maximum concentration antibody tested.

| % Max Blocking [%] | IC50 [nM] | Binder |
| --- | --- | --- |
| 95 | < 0.25 | B1 |
| 75 | 0.34 | B2 |
| 93 | < 0.25 | B3 |
| 91 | 5.2 | B4 |
